# Results reported in publication PMC7550680.
# Target: NaV1.5 voltage-gated sodium channel α subunit (human SCN5A) (human) (UniProt Q14524)
substance,measurement,value
Sodium channel β1 subunit carrying p.D103V (β1^D103V) (from UniProt Q07699-1 19-218) (natural protein),"positive shift of the voltage dependence of activation (V1/2) of the NaV1.5 sodium current with β1^D103V compared to β1^WT, whole cell patch clamp in transfected HEK-293 tsA201 cells",3.37 mV
